According to patent US20020132976A1, “Immunogenic peptides derived from prostate-specific antigen (PSA) and uses thereof” (priority 2000, published 2002):

Key:
[1] = biological target: membrane-bound HLA-A0201 molecule on T2 cells (human); assay: T2 cell HLA-A0201 stabilisation, 125.0 µM peptide, BB7.2 staining, flow cytometry; settings: remark: other sources report otherwise
[2] = biological target: membrane-bound HLA-A0201 molecule on T2 cells (human); assay: T2 cell HLA-A0201 stabilisation, 125.0 µM peptide, BB7.2 staining, flow cytometry; analysis did not include the 3 hr de-stabilization step; settings: remark: other sources report otherwise

KLQCVDLHV [CLP-316]
Fluorescence Index (FI) [1]: 2.7

PLYDMSLLK [CLP-320]
Fluorescence Index (FI) [2]: 0.2
